± gives the uncertainty stated by the source.

This series can be described thus: self-splicing fitness, log relative to wild type (ln ratio); higher = more splicing; Tetrahymena group I intron in knt gene, E. coli kanamycin selection, DiMSum; sequences stand for … in CUCUCU…GGAGGGAAAAGUUAUCAGGCAUGCACCUGGUAGCUAGUCUUUAAACCAAUAGAUUGCAUCGGUUUAAAAGGCAAGACCGUCAAAUUGCGGGAAAGGGGUCAACAGCCGUUCAGUACCAAGUCUCAGGGGAAACUUUGAGAUGGCCUUGCAAAGGGUAUGGUAAUAAGCUGACGGACAUGGUCCUAACCACGCAGCCAAGUCCUAAGUCAACAGAUCUUCUGUUGAUAUGGAUGCAGUUCACAGACUAAAUGUCGGUCGGGGAAGAUGUAUUCUUCUCAUAAGAUAUAGUCGGACCUCUCCUUAAUGGGAGCUAGCGGAUGAAGUGAUGCAACACUGGAGCCGCUGGGAACUAAUUUGUAUGCGAAAGUAUAUUGAUUAGUUUUGGAGUACUCGUGGUCG
Summed up: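 A randomised library covering all eight P1ex-region intron nucleotides was built with the intron in the knt kanamycin-resistance gene on pET-22b(+) and held in E. coli BL21(DE3). Cells were grown overnight at 37°C or 30°C on LB agar, with or without 25 μg/mL kanamycin, plus 100 μg/mL carbenicillin, 50 μM IPTG and 0.2% rhamnose, and pooled colonies were amplicon-sequenced on an Illumina HiSeq 2500. DiMSum fitness is the error-weighted combination of wild-type-normalised replicate fold changes, kanamycin versus none.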

Turning to CCCAAGCAAUAUUACGGAAG, the “self-splicing fitness (ln)” value (30 °C) is -2.89 ± 0.16 and the “self-splicing fitness (ln)” value (37 °C) is -1.48 ± 0.15.

Turning to GCAUAGCAAUAUUACGUGAU, the “self-splicing fitness (ln)” value (30 °C) was -1.64 ± 0.066 and the “self-splicing fitness (ln)” value (37 °C) was -0.927 ± 0.08.

With UUCCAGCAAUAUUACGUGAU, the “self-splicing fitness (ln)” value (30 °C) was -1.08 ± 0.044 and the “self-splicing fitness (ln)” value (37 °C) is -0.294 ± 0.063.

Regarding GCGGAGCAAUAUUACGUGAG, the “self-splicing fitness (ln)” value reads like this: (30 °C) -2.51 ± 0.12; (37 °C) -2.01 ± 0.15.

For CUAUAGCAAUAUUACGUGAG, the “self-splicing fitness (ln)” value is, setting by setting: (30 °C) -0.571 ± 0.057; (37 °C) -0.137 ± 0.086.

As to UAAAAGCAAUAUUACGAAAA, the “self-splicing fitness (ln)” value was -2.94 ± 0.2 (30 °C) and -1.71 ± 0.16 (37 °C).

With GAUAAGCAAUAUUACGAGGU, the “self-splicing fitness (ln)” value is -3.42 ± 0.13 (30 °C) and -2.79 ± 0.13 (37 °C).

In the case of UUUUAGCAAUAUUACGACCU, the “self-splicing fitness (ln)” value (37 °C) is -1.36 ± 0.44.

For UGUGAGCAAUAUUACGGCGG, the “self-splicing fitness (ln)” value runs as follows: (30 °C) -2.35 ± 0.2; (37 °C) -0.738 ± 0.19.

Consider GCGAAGCAAUAUUACGAUCC, for which the “self-splicing fitness (ln)” value was -1.64 ± 0.21 (30 °C) and -1.76 ± 0.3 (37 °C).

As to GUAGAGCAAUAUUACGUGCG, the “self-splicing fitness (ln)” value by setting is: (30 °C) -1.13 ± 0.081; (37 °C) 0.0284 ± 0.12.

Consider AACCAGCAAUAUUACGUGGA, for which the “self-splicing fitness (ln)” value by setting is: (30 °C) -2.33 ± 0.093; (37 °C) -1.13 ± 0.08.

As to CCAGAGCAAUAUUACGUAUC, the “self-splicing fitness (ln)” value (30 °C) was -2.62 ± 0.17 and the “self-splicing fitness (ln)” value (37 °C) is -1.73 ± 0.25.

With UGCAAGCAAUAUUACGCAUU, the “self-splicing fitness (ln)” value (30 °C) was -4.37 ± 0.27 and the “self-splicing fitness (ln)” value (37 °C) is -3.61 ± 0.26.

For the sequence GUACAGCAAUAUUACGAGAU, the “self-splicing fitness (ln)” value is, setting by setting: (30 °C) -3.53 ± 0.16; (37 °C) -2.03 ± 0.11.

In the case of CGACAGCAAUAUUACGAACU, the “self-splicing fitness (ln)” value was -1.16 ± 0.13 (30 °C) and -0.845 ± 0.15 (37 °C).

CCCAAGCAAUAUUACGGGUC: the “self-splicing fitness (ln)” value was -3.19 ± 0.13 (30 °C) and -3.14 ± 0.19 (37 °C).

For UGGUAGCAAUAUUACGUGGC, the “self-splicing fitness (ln)” value is, setting by setting: (30 °C) -3.64 ± 0.32; (37 °C) -3.04 ± 0.34.

Take CCGGAGCAAUAUUACGGGGA: the “self-splicing fitness (ln)” value (30 °C) is -2.97 ± 0.2 and the “self-splicing fitness (ln)” value (37 °C) was -2.73 ± 0.3.

As to UGAGAGCAAUAUUACGCAUA, the “self-splicing fitness (ln)” value (30 °C) is -3.24 ± 0.44.

Turning to UCCGAGCAAUAUUACGAAGC, where the note is “37 °C”, the “self-splicing fitness (ln)” value is -1.15 ± 0.36.

On to UACAAGCAAUAUUACGCAUA, for which the “self-splicing fitness (ln)” value is -2.07 ± 0.11 (30 °C) and -0.871 ± 0.11 (37 °C).

Turning to GGCUAGCAAUAUUACGCUAC, the “self-splicing fitness (ln)” value (30 °C) was -3.04 ± 0.48 and the “self-splicing fitness (ln)” value (37 °C) is -2.3 ± 0.34.

As for ACAGAGCAAUAUUACGGGGU, the “self-splicing fitness (ln)” value is -4.03 ± 0.34 (30 °C) and -2.39 ± 0.3 (37 °C).

Take AGGGAGCAAUAUUACGCGUG: the “self-splicing fitness (ln)” value is -2.4 ± 0.15 (30 °C) and -2.35 ± 0.23 (37 °C).

Regarding AAUCAGCAAUAUUACGAGCU, the “self-splicing fitness (ln)” value is, setting by setting: (30 °C) -0.908 ± 0.093; (37 °C) -0.226 ± 0.093.

Regarding CCACAGCAAUAUUACGGAGU, the “self-splicing fitness (ln)” value runs as follows: (30 °C) -3.32 ± 0.16; (37 °C) -1.32 ± 0.14.

Regarding UCACAGCAAUAUUACGUCGU, the “self-splicing fitness (ln)” value by setting is: (30 °C) -3.62 ± 0.19; (37 °C) -1.49 ± 0.22.

For the sequence UUUCAGCAAUAUUACGCUUG, the “self-splicing fitness (ln)” value was -1.3 ± 0.11 (30 °C) and -0.507 ± 0.11 (37 °C).

In the case of UGUCAGCAAUAUUACGAACG, the “self-splicing fitness (ln)” value reads like this: (30 °C) -0.137 ± 0.086; (37 °C) 0.589 ± 0.11.

In the case of ACAGAGCAAUAUUACGGGGC, the “self-splicing fitness (ln)” value by setting is: (30 °C) -3.53 ± 0.17; (37 °C) -2.73 ± 0.22.

On to AAGAAGCAAUAUUACGCUGU, for which the “self-splicing fitness (ln)” value is, setting by setting: (30 °C) -2.63 ± 0.13; (37 °C) -1.28 ± 0.12.

As to GCCAAGCAAUAUUACGAACA, the “self-splicing fitness (ln)” value was -2.36 ± 0.16 (30 °C) and -2.2 ± 0.17 (37 °C).

As for CUUGAGCAAUAUUACGACAA, under “37 °C”, the “self-splicing fitness (ln)” value is -2.84 ± 0.49.

In the case of GAUUAGCAAUAUUACGGAGC, the “self-splicing fitness (ln)” value (30 °C) is -3.23 ± 0.17 and the “self-splicing fitness (ln)” value (37 °C) was -1.23 ± 0.13.

Turning to CGCGAGCAAUAUUACGCCGG, the “self-splicing fitness (ln)” value is -2.19 ± 0.25 (30 °C) and -1.58 ± 0.44 (37 °C).

Take UUCCAGCAAUAUUACGGUGG: the “self-splicing fitness (ln)” value (30 °C) was -3.89 ± 0.27 and the “self-splicing fitness (ln)” value (37 °C) is -3.15 ± 0.24.

As for AAUAAGCAAUAUUACGCCUU, the “self-splicing fitness (ln)” value (30 °C) is -0.502 ± 0.12 and the “self-splicing fitness (ln)” value (37 °C) is -0.0645 ± 0.18.

CAUAAGCAAUAUUACGGUUG: the “self-splicing fitness (ln)” value was -2.47 ± 0.094 (30 °C) and -1.59 ± 0.1 (37 °C).

Regarding UCGAAGCAAUAUUACGCUUA, the “self-splicing fitness (ln)” value is, setting by setting: (30 °C) -2.28 ± 0.28; (37 °C) -3.61 ± 0.37.

As to UGGAAGCAAUAUUACGCUCA, the “self-splicing fitness (ln)” value (30 °C) was -0.562 ± 0.11 and the “self-splicing fitness (ln)” value (37 °C) is -0.00417 ± 0.13.

Regarding CCGUAGCAAUAUUACGAUAG, the “self-splicing fitness (ln)” value was -1.22 ± 0.29 (30 °C) and -0.918 ± 0.18 (37 °C).

For GGACAGCAAUAUUACGUGUA, the “self-splicing fitness (ln)” value runs as follows: (30 °C) -0.376 ± 0.078; (37 °C) -0.304 ± 0.085.

With CACGAGCAAUAUUACGGGCC, the “self-splicing fitness (ln)” value runs as follows: (30 °C) -3.08 ± 0.38; (37 °C) -2.24 ± 0.31.

As for UCCAAGCAAUAUUACGCCGC, the “self-splicing fitness (ln)” value (30 °C) was -2.64 ± 0.32.

In the case of UAUGAGCAAUAUUACGGAGU, the “self-splicing fitness (ln)” value was -4.87 ± 0.36 (30 °C) and -3.53 ± 0.37 (37 °C).

Consider GAAAAGCAAUAUUACGGGGA, for which the “self-splicing fitness (ln)” value was -1.38 ± 0.16 (30 °C) and -2.44 ± 0.23 (37 °C).

On to AUAGAGCAAUAUUACGAAAA, for which the “self-splicing fitness (ln)” value runs as follows: (30 °C) -1.06 ± 0.3; (37 °C) -1.85 ± 0.35.

Take AUCGAGCAAUAUUACGACGU: the “self-splicing fitness (ln)” value by setting is: (30 °C) -0.331 ± 0.096; (37 °C) 0.0461 ± 0.12.

For the sequence AAGCAGCAAUAUUACGAGAA, the “self-splicing fitness (ln)” value (37 °C) is -1.29 ± 0.33.

Turning to GAUCAGCAAUAUUACGAUUG, the “self-splicing fitness (ln)” value is, setting by setting: (30 °C) -0.607 ± 0.079; (37 °C) -0.237 ± 0.11.

UCUUAGCAAUAUUACGCCUC: the “self-splicing fitness (ln)” value (37 °C) is -2.31 ± 0.45.

With UUCCAGCAAUAUUACGCACC, the “self-splicing fitness (ln)” value is -2.48 ± 0.3 (30 °C) and -1.55 ± 0.26 (37 °C).

Turning to UUUAAGCAAUAUUACGGUUG, the “self-splicing fitness (ln)” value (30 °C) was -2.33 ± 0.13 and the “self-splicing fitness (ln)” value (37 °C) was -1.76 ± 0.14.

Turning to AGAAAGCAAUAUUACGAUUC, the “self-splicing fitness (ln)” value was -1.03 ± 0.095 (30 °C) and -1.07 ± 0.14 (37 °C).

For the sequence CUGUAGCAAUAUUACGAUAA, the “self-splicing fitness (ln)” value (30 °C) is -3.19 ± 0.38 and the “self-splicing fitness (ln)” value (37 °C) is -1.72 ± 0.27.

In the case of AUAAAGCAAUAUUACGUCAU, the “self-splicing fitness (ln)” value is -0.954 ± 0.056 (30 °C) and -0.228 ± 0.083 (37 °C).

UACGAGCAAUAUUACGCGAA: the “self-splicing fitness (ln)” value was -2.89 ± 0.32 (30 °C) and -2.72 ± 0.26 (37 °C).

Turning to UGUUAGCAAUAUUACGGUUG, the “self-splicing fitness (ln)” value by setting is: (30 °C) -1.78 ± 0.14; (37 °C) -1.2 ± 0.15.

In the case of UUGUAGCAAUAUUACGGAAU, the “self-splicing fitness (ln)” value by setting is: (30 °C) -1.94 ± 0.15; (37 °C) -3.26 ± 0.32.

Regarding UGGUAGCAAUAUUACGAGUU, the “self-splicing fitness (ln)” value (30 °C) was -2.91 ± 0.24 and the “self-splicing fitness (ln)” value (37 °C) is -2.75 ± 0.24.

Regarding UUAUAGCAAUAUUACGGCUG, the “self-splicing fitness (ln)” value reads like this: (30 °C) 0.0456 ± 0.07; (37 °C) 0.442 ± 0.1.

The record behind these values is the supplement of paper PMC7877785.
